Results as given in patent US11440969B2, “Use of human epididymis protein 4 (HE4) for assessing responsiveness of MUC 16-positive cancer treatment” (Genentech, Inc., priority 2016, dated 2022).

Experiment: Safety of DMUC5754A in patients: related adverse events, DLT, MTD/RP2D (NCI CTCAE v4.0)
Format: in vivo, human
Conditions: for Median time to onset of first PN on study / On study PN = No, patients n (%) / On study PN = Yes, patients n (%): q3w dosing
Method: This multicenter, open-label, dose-escalation study was designed to identify the recommended Phase II dose (RP2D) of DMUC5754A in patients with platinum-resistant OC or unresectable pancreatic cancer. In the single-agent dose escalation stage utilizing a 3+3 enrollment scheme, patients were given intravenous DMUC5754A (Genentech Inc.) 0.3-3.2 mg/kg every 3 weeks (q3w) to evaluate the safety, tolerability, and pharmacokinetics of DMUC5754A. Following determination of the maximum tolerated dose (MTD), dose-expansion cohorts were enrolled at the RP2D of 2.4 mg/kg to further characterize the safety and preliminary clinical efficacy of DMUC5754A.
Dosing on a weekly (qlw) schedule was also evaluated at the RP2D, employing a 3+3 design to determine the MTD of weekly dosing, followed by a cohort expansion to further characterize the safety and activity of q1w dosing.
Safety was evaluated according to NCI CTCAE v4.0. […] The maximum tolerated dose (MTD) was defined as the dose at which ≤1 of 6 patients at an assigned dose with protocol-defined DLT. Patients who experienced a DLT or adverse event (AE) meeting DLT criteria after the DLT assessment window were allowed to delay dosing for up to 2 weeks or undergo a dose reduction.

[1] = q3w patients, over all dose levels

B1: DMUC5754A: antibody-drug conjugate: humanized IgG1 anti-MUC16 monoclonal antibody and MMAE, linked through protease labile linker maleimidocaproyl-valine-citrulline-p-aminobenzyloxycarbonyl (conjugate, chains of the INN, looked up)
VH: EVQLVESGGGLVQPGGSLRLSCAASGYSITNDYAWNWVRQAPGKGLEWVGYISYSGYTTYNPSLKSRFTISRDTSKNTLYLQMNSLRAEDTAVYYCARWTSGLDYWGQGTLVTVSS
VL: DIQMTQSPSSLSASVGDRVTITCKASDLIHNWLAWYQQKPGKAPKLLIYGATSLETGVPSRFSGSGSGTDFTLTISSLQPEDFATYYCQQYWTTPFTFGQGTKVEIK
modifications: MMAE via mc-vc-PABC linker
With B1 the “Pyrexia (related AE), patients” value (q3w 0.3 mg/kg (n = 3)) was 0, the “Vomiting (related AE), patients” value (q3w 0.3 mg/kg (n = 3)) was 0 and the “Alopecia (related AE), patients” value (q3w 0.6 mg/kg (n = 3)) was 0. The “Any adverse events (related), patients” value (q3w 0.6 mg/kg (n = 3)) was 1, the “Arthralgia (related AE), patients” value (q3w 0.6 mg/kg (n = 3)) was 0 and the “Asthenia (related AE), patients” value (q3w 0.6 mg/kg (n = 3)) was 0. The “Decreased appetite (related AE), patients” value (q3w 0.6 mg/kg (n = 3)) was 0, the “Diarrhea (related AE), patients” value (q3w 0.6 mg/kg (n = 3)) was 1 and the “Dysgeusia (related AE), patients” value (q3w 0.6 mg/kg (n = 3)) was 0. The “Fatigue (related AE), patients” value (q3w 0.6 mg/kg (n = 3)) was 1, the “Hypokalemia (related AE), patients” value (q3w 0.6 mg/kg (n = 3)) was 0 and the “Hypomagnesaemia (related AE), patients” value (q3w 0.6 mg/kg (n = 3)) was 0. For the same molecule, the “Hypophosphatemia (related AE), patients” value (q3w 0.6 mg/kg (n = 3)) was 0, the “Nausea (related AE), patients” value (q3w 0.6 mg/kg (n = 3)) was 0 and the “Neutropenia (related AE), patients” value (q3w 0.6 mg/kg (n = 3)) was 0. The “Peripheral neuropathy (related AE), patients” value (shortened to “Peripheral neuropathy”) (q3w 0.6 mg/kg (n = 3)) was 0, the “Pyrexia (related AE), patients” value (q3w 0.6 mg/kg (n = 3)) was 0 and the “Vomiting (related AE), patients” value (q3w 0.6 mg/kg (n = 3)) was 1. For the same molecule, the “Alopecia (related AE), patients” value (q3w 1.2 mg/kg (n = 3)) was 0, the “Any adverse events (related), patients” value (q3w 1.2 mg/kg (n = 3)) was 3 and the “Arthralgia (related AE), patients” value (q3w 1.2 mg/kg (n = 3)) was 0. The “Asthenia (related AE), patients” value (q3w 1.2 mg/kg (n = 3)) was 0, the “Decreased appetite (related AE), patients” value (q3w 1.2 mg/kg (n = 3)) was 2 and the “Diarrhea (related AE), patients” value (q3w 1.2 mg/kg (n = 3)) was 1. For the same molecule, the “Dysgeusia (related AE), patients” value (q3w 1.2 mg/kg (n = 3)) was 0, the “Fatigue (related AE), patients” value (q3w 1.2 mg/kg (n = 3)) was 1 and the “Hypokalemia (related AE), patients” value (q3w 1.2 mg/kg (n = 3)) was 0. The “Hypomagnesaemia (related AE), patients” value (q3w 1.2 mg/kg (n = 3)) was 0, the “Hypophosphatemia (related AE), patients” value (q3w 1.2 mg/kg (n = 3)) was 0 and the “Nausea (related AE), patients” value (q3w 1.2 mg/kg (n = 3)) was 0. For the same molecule, the “Neutropenia (related AE), patients” value (q3w 1.2 mg/kg (n = 3)) was 0, the “Peripheral neuropathy” value (q3w 1.2 mg/kg (n = 3)) was 0 and the “Pyrexia (related AE), patients” value (q3w 1.2 mg/kg (n = 3)) was 0. The “Vomiting (related AE), patients” value (q3w 1.2 mg/kg (n = 3)) was 1, the “Alopecia (related AE), patients” value (q3w 1.8 mg/kg (n = 3)) was 1 and the “Any adverse events (related), patients” value (q3w 1.8 mg/kg (n = 3)) was 2. The “Arthralgia (related AE), patients” value (q3w 1.8 mg/kg (n = 3)) was 2, the “Asthenia (related AE), patients” value (q3w 1.8 mg/kg (n = 3)) was 0 and the “Decreased appetite (related AE), patients” value (q3w 1.8 mg/kg (n = 3)) was 1. For the same molecule, the “Diarrhea (related AE), patients” value (q3w 1.8 mg/kg (n = 3)) was 2, the “Dysgeusia (related AE), patients” value (q3w 1.8 mg/kg (n = 3)) was 0 and the “Fatigue (related AE), patients” value (q3w 1.8 mg/kg (n = 3)) was 1. For the same molecule, the “Hypokalemia (related AE), patients” value (q3w 1.8 mg/kg (n = 3)) was 0, the “Hypomagnesaemia (related AE), patients” value (q3w 1.8 mg/kg (n = 3)) was 2 and the “Hypophosphatemia (related AE), patients” value (q3w 1.8 mg/kg (n = 3)) was 1. The “Nausea (related AE), patients” value (q3w 1.8 mg/kg (n = 3)) was 1, the “Neutropenia (related AE), patients” value (q3w 1.8 mg/kg (n = 3)) was 0 and the “Peripheral neuropathy” value (q3w 1.8 mg/kg (n = 3)) was 2. For the same molecule, the “Pyrexia (related AE), patients” value (q3w 1.8 mg/kg (n = 3)) was 2, the “Vomiting (related AE), patients” value (q3w 1.8 mg/kg (n = 3)) was 0 and the “Alopecia (related AE), patients” value (q3w 2.4 mg/kg (n = 39)) was 9. For the same molecule, the “Any adverse events (related), patients” value (q3w 2.4 mg/kg (n = 39)) was 39, the “Arthralgia (related AE), patients” value (q3w 2.4 mg/kg (n = 39)) was 5 and the “Asthenia (related AE), patients” value (q3w 2.4 mg/kg (n = 39)) was 5. The “Decreased appetite (related AE), patients” value (q3w 2.4 mg/kg (n = 39)) was 11, the “Diarrhea (related AE), patients” value (q3w 2.4 mg/kg (n = 39)) was 8 and the “Dysgeusia (related AE), patients” value (q3w 2.4 mg/kg (n = 39)) was 7. For the same molecule, the “Fatigue (related AE), patients” value (q3w 2.4 mg/kg (n = 39)) was 26, the “Hypokalemia (related AE), patients” value (q3w 2.4 mg/kg (n = 39)) was 4 and the “Hypomagnesaemia (related AE), patients” value (q3w 2.4 mg/kg (n = 39)) was 6. The “Hypophosphatemia (related AE), patients” value (q3w 2.4 mg/kg (n = 39)) was 2, the “Nausea (related AE), patients” value (q3w 2.4 mg/kg (n = 39)) was 15 and the “Neutropenia (related AE), patients” value (q3w 2.4 mg/kg (n = 39)) was 8. The “Peripheral neuropathy” value (q3w 2.4 mg/kg (n = 39)) was 17, the “Pyrexia (related AE), patients” value (q3w 2.4 mg/kg (n = 39)) was 7 and the “Vomiting (related AE), patients” value (q3w 2.4 mg/kg (n = 39)) was 10. For the same molecule, the “Alopecia (related AE), patients” value (q3w 3.2 mg/kg (n = 3)) was 1, the “Any adverse events (related), patients” value (q3w 3.2 mg/kg (n = 3)) was 3 and the “Arthralgia (related AE), patients” value (q3w 3.2 mg/kg (n = 3)) was 1. The “Asthenia (related AE), patients” value (q3w 3.2 mg/kg (n = 3)) was 1, the “Decreased appetite (related AE), patients” value (q3w 3.2 mg/kg (n = 3)) was 1 and the “Diarrhea (related AE), patients” value (q3w 3.2 mg/kg (n = 3)) was 1. The “Dysgeusia (related AE), patients” value (q3w 3.2 mg/kg (n = 3)) was 1, the “Fatigue (related AE), patients” value (q3w 3.2 mg/kg (n = 3)) was 2 and the “Hypokalemia (related AE), patients” value (q3w 3.2 mg/kg (n = 3)) was 2. The “Hypomagnesaemia (related AE), patients” value (q3w 3.2 mg/kg (n = 3)) was 0, the “Hypophosphatemia (related AE), patients” value (q3w 3.2 mg/kg (n = 3)) was 3 and the “Nausea (related AE), patients” value (q3w 3.2 mg/kg (n = 3)) was 3. The “Neutropenia (related AE), patients” value (q3w 3.2 mg/kg (n = 3)) was 1, the “Peripheral neuropathy” value (q3w 3.2 mg/kg (n = 3)) was 1 and the “Pyrexia (related AE), patients” value (q3w 3.2 mg/kg (n = 3)) was 2. For the same molecule, the “Vomiting (related AE), patients” value (q3w 3.2 mg/kg (n = 3)) was 3, the “Alopecia (related AE), patients” value (q3w All Patients (n = 54)) was 11 and the “Any adverse events (related), patients” value (q3w All Patients (n = 54)) was 51. For the same molecule, the “Arthralgia (related AE), patients” value (q3w All Patients (n = 54)) was 8, the “Asthenia (related AE), patients” value (q3w All Patients (n = 54)) was 6 and the “Decreased appetite (related AE), patients” value (q3w All Patients (n = 54)) was 16. The “Diarrhea (related AE), patients” value (q3w All Patients (n = 54)) was 13, the “Dysgeusia (related AE), patients” value (q3w All Patients (n = 54)) was 8 and the “Fatigue (related AE), patients” value (q3w All Patients (n = 54)) was 31. For the same molecule, the “Hypokalemia (related AE), patients” value (q3w All Patients (n = 54)) was 6, the “Hypomagnesaemia (related AE), patients” value (q3w All Patients (n = 54)) was 9 and the “Hypophosphatemia (related AE), patients” value (q3w All Patients (n = 54)) was 6. For the same molecule, the “Nausea (related AE), patients” value (q3w All Patients (n = 54)) was 20, the “Neutropenia (related AE), patients” value (q3w All Patients (n = 54)) was 9 and the “Peripheral neuropathy” value (q3w All Patients (n = 54)) was 21. For the same molecule, the “Pyrexia (related AE), patients” value (q3w All Patients (n = 54)) was 11, the “Vomiting (related AE), patients” value (q3w All Patients (n = 54)) was 15 and the “patients with AEs leading to treatment discontinuation” value (q3w cohorts, 3/54 patients) was 5.6%. For the same molecule, the “Median time to onset of first PN on study” value (“Median time to onset” for short) (Prior neuropathy = No) was 71 days, the “On study PN = No, patients n (%)” value (Prior neuropathy = No) was 11 (20%) and the “On study PN = Yes, patients n (%)” value (Prior neuropathy = No) was 18 (33%). For the same molecule, the “Median time to onset” value (Prior neuropathy = Yes) was 148 days, the “On study PN = No, patients n (%)” value (Prior neuropathy = Yes) was 20 (37%) and the “On study PN = Yes, patients n (%)” value (Prior neuropathy = Yes) was 5 (9%). The “Median time to onset” value (Total) was 99 days, the “On study PN = No, patients n (%)” value (Total) was 31 (57%) and the “On study PN = Yes, patients n (%)” value (Total) was 23 (43%). For the same molecule, the “Drug-related SAE hypocalcemia, patients” value (q3w patients) was 1, the “Drug-related SAE neutropenia, patients” value (q3w patients) was 1 and the “Drug-related SAE small intestine obstruction, patients” value (q3w patients) was 2. The “alopecia, related AE” value [1] was 20.4%, the “decreased appetite, related AE” value [1] was 29.6% and the “diarrhea, related AE” value [1] was 24.1%. For the same molecule, the “fatigue, related AE” value [1] was 57.4%, the “nausea, related AE” value [1] was 37.0% and the “peripheral sensory neuropathy, related AE” value [1] was 27.8%. For the same molecule, the “pyrexia, related AE” value [1] was 20.4%, the “vomiting, related AE” value [1] was 27.8% and the “Grade ≥3 related fatigue” value (q3w patients, total) was 7.4%. For the same molecule, the “Grade ≥3 related neutropenia” value (q3w patients, total) was 9.3%, the RP2D (q3w schedule) was 2.4 mg/kg and the “Grade ≥3 related fatigue, patients” value (q3w, at 2.4 mg/kg) was 4. For the same molecule, the “Grade ≥3 related neutropenia, patients” value (q3w, at 2.4 mg/kg) was 4.
